# The RNAGym collection of RNA variant scans (doi:10.1073/pnas.2313332121)
# B1: TPR t1 (parent)
# chain: GACCAAUCUGCCCUCAGAGCUCGAGAACAUCUUCGGAUGCAGAGGAGGCAGGCUUCGGUGGCGCGAUAGCGCCAACGUCCUCAACCUCCAAUGCAUCCCACCACAUGAUGAUGCCUGAAGAGCCUUGGUUUUUUG
# Variants of: B1
# Assay: polymerase ribozyme fitness, log enrichment relative to wild type (log ratio); higher = more active; in vitro selection for triplet polymerase activity
# Method in brief: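 To select mutant libraries of each subunit of a heterodimeric triplet polymerase ribozyme, built by PCR and transcribed, each was annealed with a biotinylated primer, partner subunit and triplets, then incubated frozen at −7 °C. Extended constructs were gel-excised, captured on streptavidin beads and amplified by RT-PCR, in one round carried out in triplicate. Illumina sequencing of input and output libraries kept genotypes with ≥10 input reads and ≥1 read per output. Fitness is the base-2 logarithm of genotype enrichment relative to wild-type enrichment, from inverse-variance-weighted replicate averages.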
row,Variant,polymerase ribozyme fitness (log ratio)
1,A5U U9A U32C A37U C49U G69A G93A,-4.95
2,A6G C98U U106A C124A,1.28
3,A5U G113C,-2.11
4,A5U G113A,-1.04
5,A6U C13A A16U C49A G63A C101A,-4.21
6,A6U A37G G127C G135U,-1.84
7,A6C C8A C13G A43U G69C C88A,-2.92
8,A6G C123A,1.64
9,A6U C11G G48U C82G C85U,-0.874
10,A5U G69U G110A,-0.583
11,A5U U7A A91G C114A,-1.75
12,A6G U78C C102A C124A U130A,-1.35
13,A6G C15U C89U U96A,-0.964
14,A5U G42U A46G C72U U78G,-1.17
15,A6C A37C,-0.884
16,A6U A16G G63U C89U,-3.25
17,A6C G69U C72U,-0.0767
18,A6C A29U A91C,-4.88
19,A6G C72U G93A,-0.751
20,A5U G71A,-1.5
21,A6G U7C,-0.442
22,A6C A121U,1.95
23,A6C G58C G60U A95C,-1.05
24,A6G C34U G60U C72U U116A C124A,-4.04

row,Variant,polymerase ribozyme fitness (log ratio)
1,A6G C62U G110C,-4.63
2,A6C G36C,-1.4
3,A5U G63U U133A,-2.34
4,A5U G10U C49G C62G,-4.17
5,A6C A29U C49A A66C G71C A119U,-4.4
6,A5U U14G A41U G60C C115U,-4.57
7,A5U U33G C76A C80A A83C G113U A119U,-6.4
8,A6G C13U C72U C102U G122A,-2.6
9,A6C C72U A91G A121U G128C,-0.723
10,A6C A95G C102U C124G,-0.561
11,A6C U9C A46C G61A C62U C82U,-3.08
12,A6G U38G G47U G117A G120C,-5.06
13,A5U U7G A43U G71U A83C,-2.36
14,A6G C12A C80U G113U,-3.95
15,A6C C82A C89A,-2.13
16,A6U C12G C89G A105C U106G,-3.35
17,A6G U54A G93A,-0.596
18,A6U A37U C101G C123A U125G U132A,-2.11
19,A6U C8U C40U A43U G48C U132A,-1.71
20,A6C C115G,-2.07
21,A6U A50U A95C,-1.57
22,A6U C8U C70A C101G,-3.42
23,A6C G107U,-4.64
24,A6G G48A G71C G117A,-2.1

row,Variant,polymerase ribozyme fitness (log ratio)
1,A6C G35U G39A G61U A74C C86U C101A C115U,-6.88
2,A6C G47U C124A,-1.59
3,A6C A41U U106A,-1.37
4,A6U A29U C34A G69U A90G A95U,-2.59
5,A6C C11A C72G C85U U112G,-2.46
6,A5U U21C C72G C97U,-1.7
7,A6U A121G,2.04
8,A6C G47C G71U,-2.53
9,A6C C72G,-0.682
10,A6C U7C C56U A91G U106G G120U,-4.11
11,A6C C62G G113A,-3.34
12,A6C A43G G63U G69A G117C,-5.96
13,A6U A24C C28A G47U G65C C102G G107A G120A G127U,-6.59
14,A6C U32A C64U A111G,-4.1
15,A5U C89G,-1.4
16,A6G G10C U112A,-0.0126
17,A6U A46U U116A,-4.28
18,A6G C102A C124A U130A,0.13
19,A6C A29U G52U C53U G120A C123U,-2.96
20,A5U U81G G93A U106A C123U,-3.99
21,A5U U7A C15U C76A,-1.76
22,A6G C72G C88U C123A,0.738
23,A6C G71C C82A U112A A118U,-0.912
24,A6C U9G G77C A105G U126A,-4.13

row,Variant,polymerase ribozyme fitness (log ratio)
1,A6U A18U C76U,-2.81
2,A6C G36U U96G G120C G122A,-0.981
3,A5U G61C,-1.74
4,A6C A27C G110C U130C,-6.2
5,A6G G61C C89U,-2.67
6,A6U C12U G23C G63U G120U,-7.69
7,A5U G110C,-3.71
8,A6U C12G G45C,-1.57
9,A6C G47U,-1.55
10,A6G C79G C104A,-4.14
11,A6C U9G G47C G63A A83U G120U,-1.35
12,A6C C76U C101G G122A C124U U129A,-2.42
13,A6G C11U C98A,-5.05
14,A6U A83U C115U,-1.65
15,A6U C8G G17A G48C C53A U126C,-4.16
16,A6U A103G,-4.63
17,A5U U92G C104U,-2.44
18,A6G C98G,-6.34
19,A5U U14A C53U U112A,0.0341
20,A6C C98A,-4.73
21,A6C A105G U112C G127A,-2.69
22,A6U C8A C12A A41U C79A C89A C94U C101U U116G C123U,-6.77
23,A6G A43G G69U,-0.0956
24,A6U A29G G61U C89A A121G,-0.882

row,Variant,polymerase ribozyme fitness (log ratio)
1,A6G C12A G23C A66G C114U G128A,-5.09
2,A6C U59G C86U G113U,-3.51
3,A6C C12G G57U,-0.469
4,A6G U9A C34U,-3.96
5,A6G G69U C115A G120A,0.502
6,A6G C72G G117U A121U G127A,-2.18
7,A6C C12U U38G C80U,-1.42
8,A6G C82G U87A A90U,-2.92
9,A5U U9G G36A G39A U96G,-5.14
10,A6C A118U,0.712
11,A6C G44C G58A U96A,-2.15
12,A6G U9C,0.178
13,A6C U14G C94U C101G,-4.26
14,A6G U7C C12U G23U C70U C72A U87G,-6.73
15,A5U G122A,-0.551
16,A6U C11U G47A A118U,-1.52
17,A6C C72U G93U A100U,-2.39
18,A6U A91C,-1.21
19,A6U C11U C22U A41C,-5.83
20,A5U U21C C97U,-1.38
21,A6C G39U G77U G113U C114G,-3.79
22,A6G U7A C53U C80G C101A,-5.66
23,A6G G58A U59C,-1.72
24,A6C A105C U130C,-1.78

row,Variant,polymerase ribozyme fitness (log ratio)
1,A5U U21A,0.185
2,A5U C123A,1.2
3,A6G C73U G117C,-2.3
4,A6U A111C,-0.0776
5,A6C U21G G39U C72G C85A C124U G128A U133A,-3.4
6,A6G A50G U112C,1.56
7,A6U C11U G47C C85U C114A,-4.43
8,A6C G69U C76G C85G G120U,-1.75
9,A6C C11A A18C C73U,-4.87
10,A5U G39A G60U C70U,-2.4
11,A6G A37U C56G,-1.11
12,A6C A37G G47C C64U U87A G120C C124G,-2.79
13,A6C U7C,-0.0861
14,A6G C49G C56G U81G C114U U132C,-5.17
15,A5U G44C C70U A84C C104A G117C,-7.15
16,A6G C12U U30C A108G,0.259
17,A6G A90U,-0.939
18,A6G A41C C76U C115U U130A U133A,-2.77
19,A6G U7C A50U C80G U112G,-4.92
20,A6G U7C A74C C80G U112G,-6.27
21,A5U G110U U130A,-2.41
22,A6G C12U C22U A50G C56A,-4.54
23,A6G G36A,-0.889
24,A6C C72U A105C U131C,-2.59

row,Variant,polymerase ribozyme fitness (log ratio)
1,A6U A43C A50G G61A C115A U116C,-4.89
2,A6C U59G,-0.454
3,A6C C13U U33A G45U G51C A68U A121U G122U,-6.98
4,A6G A41C C56A G93U G117C,-4.14
5,A5U G60A U78A C97U,-1.08
6,A6G A95C,-1.16
7,A6G A43G G57U C73U U81A,-3.53
8,A6G C13U C98U A119U,-2.09
9,A6U A46C,-0.0914
10,A6U A29G G71A A83G C89A U109C G120C C123G U132A,-6.04
11,A6C U9A G52A A68G U106A,-2.55
12,A5U U87G U130C,0.627
13,A6C U38A C115A,-1.35
14,A6C G48C C72U U106A,-1.51
15,A6G C13G G47A C56A C80U,-2.43
16,A6G C11A U92G,-4.04
17,A6C G47A C124G,0.159
18,A6U A90U,-0.93
19,A6C C88U,-0.228
20,A6G A46U G48U C101U U116C G122U,-5.6
21,A6C C11U G63C,-1.94
22,A6U A46U C72A U96A G120A G128A,-2.92
23,A6U A46C C49G C82G C89U,-2.2
